Test results as given in patent US20060135432A1 (NEUROGENEX, published 2006).
[ ]: non-standard residue; d: D form. dPhe(4-Cl) = N[C@H](Cc1ccc(Cl)cc1)C(=O)O; d2Nal = N[C@H](Cc1ccc2ccccc2c1)C(=O)O; dCit = NC(=O)NCCC[C@@H](N)C(=O)O; d3Pal = N[C@H](Cc1cccnc1)C(=O)O; pGlu = O=C1CC[C@@H](C(=O)O)N1

What was measured:
bfGnRHR-2 [1] = target: bfGnRHR-2 (bullfrog); experiment: cell-based or functional assay
bfGnRHR-1 [2] = target: bfGnRHR-1 (bullfrog); experiment: cell-based or functional assay
rat GnRHR [3] = target: T1, rat GnRHR (rat, UniProt P30969 1-327); experiment: cell-based or functional assay
T1 sequence (looked up): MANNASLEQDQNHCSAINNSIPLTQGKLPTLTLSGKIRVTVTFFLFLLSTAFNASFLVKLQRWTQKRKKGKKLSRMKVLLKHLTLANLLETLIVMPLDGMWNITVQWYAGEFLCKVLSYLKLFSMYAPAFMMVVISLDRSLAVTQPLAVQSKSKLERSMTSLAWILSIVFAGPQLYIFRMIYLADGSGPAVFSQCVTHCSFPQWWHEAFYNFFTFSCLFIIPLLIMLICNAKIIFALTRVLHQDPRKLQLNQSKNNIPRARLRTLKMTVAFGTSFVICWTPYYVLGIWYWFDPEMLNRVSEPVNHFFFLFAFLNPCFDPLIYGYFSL

bfGnRHR-3 [4] = target: bfGnRHR-3 (bullfrog); experiment: cell-based or functional assay
rat GnRHR [5] = target: T1, rat GnRHR; experiment: displacement of I^125-GnRH-2 from membranes of GH3 cells expressing rat GnRHR
Description: (§1) After 48 hours, the cells were homogenized to obtain cellular membranes, which were then dissolved in binding buffer (40 mM Tris, pH 7.4, 2 mM MgCl₂).

bfGnRHR-3 [6] = target: T2, bfGnRHR-3 (bullfrog); experiment: displacement of I^125-GnRH-2 from membranes of GH3 cells expressing bfGnRHR-3
T2 construct: whole, on cells; also called bullfrog GnRH receptor 3; bfGnRH receptor
Description: as §1

Primate GnRH-2 receptor [7] = target: T3, Primate GnRH-2 receptor (Primate (from a CV-1 cell genome)); experiment: cell-based or functional assay
rat GnRHR [8] = target: T1, rat GnRHR; experiment: cell-based or functional assay; remark: listed apart in the source
Primate GnRH-2 receptor [9] = target: T3, Primate GnRH-2 receptor; experiment: cell-based or functional assay; remark: listed apart in the source
bfGnRHR-2 [10] = target: bfGnRHR-2 (bullfrog); experiment: cell-based or functional assay; remark: listed apart in the source
bfGnRHR-2 [11] = target: bfGnRHR-2 (bullfrog); experiment: cell-based or functional assay; remark: listed apart in the source
bfGnRHR-1 [12] = target: bfGnRHR-1 (bullfrog); experiment: cell-based or functional assay; remark: listed apart in the source

B1: GnRH-2 (peptide)
peptide: [pGlu]HWSHGWYPG-NH2
modifications: also: I-125 radiolabelled form used as tracer
notes: Purchased from Sigma Co; also called gonadotropin-releasing hormone-2; cGnRH-II
Log EC50, inositol phosphate production in GH3 cells expressing the receptor (bfGnRHR-2 [1]): -8.98 log EC50 (concentration unit not printed) | Log EC50, inositol phosphate production in GH3 cells expressing the receptor (bfGnRHR-1 [2]): -9.41 log EC50 (concentration unit not printed) | Log EC50, inositol phosphate production in GH3 cells expressing the receptor (rat GnRHR [3]): -8.06 log EC50 (concentration unit not printed) | Log EC50, inositol phosphate production in GH3 cells expressing the receptor (bfGnRHR-3 [4]): -9.51 log EC50 (concentration unit not printed) | log IC50 (rat GnRHR [5]): -6.08 log IC50 (concentration unit not printed) | log IC50 (bfGnRHR-3 [6]): -8.63 log IC50 (concentration unit not printed) | Emax (fold-induction), luciferase activation (Primate GnRH-2 receptor [7]): 11.7 fold-induction | Ratio^a (EC50 relative to the EC50 of GnRH-2), luciferase activation (Primate GnRH-2 receptor [7]): 1 ratio to GnRH-2 | inositol phosphate production, sensitivity compared with GnRH-1 (rat GnRHR [8]): 10 fold lower sensitivity than GnRH-1

B2: [D-Trp^6]GnRH-2 (peptide)
peptide: [pGlu]HWSH[dW]WYPG-NH2
SMILES: NC(=O)CNC(=O)[C@@H]1CCCN1C(=O)[C@H](Cc1ccc(O)cc1)NC(=O)[C@H](Cc1c[nH]c2ccccc12)NC(=O)[C@@H](Cc1c[nH]c2ccccc12)NC(=O)[C@H](Cc1c[nH]cn1)NC(=O)[C@H](CO)NC(=O)[C@H](Cc1c[nH]c2ccccc12)NC(=O)[C@H](Cc1c[nH]cn1)NC(=O)[C@@H]1CCC(=O)N1
Log EC50, inositol phosphate production in GH3 cells expressing the receptor (bfGnRHR-2 [1]): -9.21 log EC50 (concentration unit not printed) | Log EC50, inositol phosphate production in GH3 cells expressing the receptor (bfGnRHR-1 [2]): -9.4 log EC50 (concentration unit not printed) | Log EC50, inositol phosphate production in GH3 cells expressing the receptor (rat GnRHR [3]): -7.92 log EC50 (concentration unit not printed) | Log EC50, inositol phosphate production in GH3 cells expressing the receptor (bfGnRHR-3 [4]): -9.22 log EC50 (concentration unit not printed) | log IC50 (rat GnRHR [5]): -7.01 log IC50 (concentration unit not printed) | log IC50 (bfGnRHR-3 [6]): -8.1 log IC50 (concentration unit not printed) | Emax (fold-induction), luciferase activation (Primate GnRH-2 receptor [7]): 11.2 fold-induction | Ratio^a (EC50 relative to the EC50 of GnRH-2), luciferase activation (Primate GnRH-2 receptor [7]): 1.2 ratio to GnRH-2

B3: [D-Ala^6, Leu^7]GnRH-2 (peptide)
peptide: [pGlu]HWSH[dA]LYPG-NH2
SMILES: CC(C)C[C@H](NC(=O)[C@@H](C)NC(=O)[C@H](Cc1c[nH]cn1)NC(=O)[C@H](CO)NC(=O)[C@H](Cc1c[nH]c2ccccc12)NC(=O)[C@H](Cc1c[nH]cn1)NC(=O)[C@@H]1CCC(=O)N1)C(=O)N[C@@H](Cc1ccc(O)cc1)C(=O)N1CCC[C@H]1C(=O)NCC(N)=O
Emax (fold-induction), luciferase activation (Primate GnRH-2 receptor [7]): 9.04 fold-induction | Ratio^a (EC50 relative to the EC50 of GnRH-2), luciferase activation (Primate GnRH-2 receptor [7]): 2.51 ratio to GnRH-2

B4: Trptorelix-2 (peptide)
peptide: Ac-[d2Nal][dPhe(4-Cl)][d3Pal]SH[dCit]WYP[dA]-NH2
SMILES: CC(=O)N[C@H](Cc1ccc2ccccc2c1)C(=O)N[C@H](Cc1ccc(Cl)cc1)C(=O)N[C@H](Cc1cccnc1)C(=O)N[C@@H](CO)C(=O)N[C@@H](Cc1c[nH]cn1)C(=O)N[C@H](CCCNC(N)=O)C(=O)N[C@@H](Cc1c[nH]c2ccccc12)C(=O)N[C@@H](Cc1ccc(O)cc1)C(=O)N1CCC[C@H]1C(=O)N[C@H](C)C(N)=O
Log IC50, inhibition of GnRH-2-induced c-fos-luc luciferase activity (Primate GnRH-2 receptor [9]): -6.19 log IC50 (concentration unit not printed)

B5: [D-Ala^6, Tyr^7, Trp^8]GnRH-2 (peptide)
peptide: [pGlu]HWSH[dA]YWPG-NH2
SMILES: C[C@@H](NC(=O)[C@H](Cc1c[nH]cn1)NC(=O)[C@H](CO)NC(=O)[C@H](Cc1c[nH]c2ccccc12)NC(=O)[C@H](Cc1c[nH]cn1)NC(=O)[C@@H]1CCC(=O)N1)C(=O)N[C@@H](Cc1ccc(O)cc1)C(=O)N[C@@H](Cc1c[nH]c2ccccc12)C(=O)N1CCC[C@H]1C(=O)NCC(N)=O
Emax (fold-induction), luciferase activation (Primate GnRH-2 receptor [7]): 12.8 fold-induction | Ratio^a (EC50 relative to the EC50 of GnRH-2), luciferase activation (Primate GnRH-2 receptor [7]): 6.61 ratio to GnRH-2

B6: GnRH-1 (peptide)
peptide: EHWSYGLRPG
modifications: pyroGlu at 1; C-terminal amide (GlyNH2); radiolabelled with I^125 where used as tracer in Example 4
notes: also called mGnRH; mammalian GnRH
Log EC50, inositol phosphate production in GH3 cells expressing the receptor (bfGnRHR-2 [1]): -5.59 log EC50 (concentration unit not printed) | Log EC50, inositol phosphate production in GH3 cells expressing the receptor (bfGnRHR-1 [2]): -8.52 log EC50 (concentration unit not printed) | Log EC50, inositol phosphate production in GH3 cells expressing the receptor (bfGnRHR-3 [4]): -8.42 log EC50 (concentration unit not printed) | log IC50 (bfGnRHR-3 [6]): -7.32 log IC50 (concentration unit not printed) | inositol phosphate production, concentration needed compared with GnRH-2 (bfGnRHR-2 [10]): ~1000 fold higher concentration than GnRH-2

Ac-[d2Nal][dPhe(4-Cl)][d3Pal]SY[dCit]WYP[dA]-NH2 [Trptorelix-1]
Log IC50, inhibition of GnRH-2-induced inositol phosphate production in GH3 cells expressing the receptor (bfGnRHR-2 [11]): -8.1 log IC50 (concentration unit not printed) | Log IC50, inhibition of GnRH-2-induced c-fos-luc luciferase activity (Primate GnRH-2 receptor [9]): -5.74 log IC50 (concentration unit not printed) | inhibition of GnRH-2-induced IP production, sensitivity compared with Cetrorelix (bfGnRHR-2 [10]): 100 fold more sensitive than Cetrorelix

Ac-[d2Nal][dPhe(4-Cl)][d3Pal]SY[dCit]LRP[dA]-NH2 [Cetrorelix]
Log IC50, inhibition of GnRH-2-induced inositol phosphate production in GH3 cells expressing the receptor (bfGnRHR-2 [11]): -6.43 log IC50 (concentration unit not printed)

B7: [Tyr^5, D-Ala^6, Leu^8]GnRH-2 (peptide)
peptide: [pGlu]HWSY[dA]WLPG-NH2
SMILES: CC(C)C[C@H](NC(=O)[C@H](Cc1c[nH]c2ccccc12)NC(=O)[C@@H](C)NC(=O)[C@H](Cc1ccc(O)cc1)NC(=O)[C@H](CO)NC(=O)[C@H](Cc1c[nH]c2ccccc12)NC(=O)[C@H](Cc1c[nH]cn1)NC(=O)[C@@H]1CCC(=O)N1)C(=O)N1CCC[C@H]1C(=O)NCC(N)=O
Emax (fold-induction), luciferase activation (Primate GnRH-2 receptor [7]): 7.35 fold-induction | Ratio^a (EC50 relative to the EC50 of GnRH-2), luciferase activation (Primate GnRH-2 receptor [7]): 3.01 ratio to GnRH-2

B8: [D-Ala^6]GnRH-2 (peptide)
peptide: [pGlu]HWSH[dA]WYPG-NH2
SMILES: C[C@@H](NC(=O)[C@H](Cc1c[nH]cn1)NC(=O)[C@H](CO)NC(=O)[C@H](Cc1c[nH]c2ccccc12)NC(=O)[C@H](Cc1c[nH]cn1)NC(=O)[C@@H]1CCC(=O)N1)C(=O)N[C@@H](Cc1c[nH]c2ccccc12)C(=O)N[C@@H](Cc1ccc(O)cc1)C(=O)N1CCC[C@H]1C(=O)NCC(N)=O
notes: Chemically synthesised by AnyGen Co
Log EC50, inositol phosphate production in GH3 cells expressing the receptor (bfGnRHR-2 [1]): -9.91 log EC50 (concentration unit not printed) | Log EC50, inositol phosphate production in GH3 cells expressing the receptor (bfGnRHR-1 [2]): -9.91 log EC50 (concentration unit not printed) | Log EC50, inositol phosphate production in GH3 cells expressing the receptor (rat GnRHR [3]): -8.49 log EC50 (concentration unit not printed) | Log EC50, inositol phosphate production in GH3 cells expressing the receptor (bfGnRHR-3 [4]): -9.89 log EC50 (concentration unit not printed) | log IC50 (rat GnRHR [5]): -6.85 log IC50 (concentration unit not printed) | log IC50 (bfGnRHR-3 [6]): -9.83 log IC50 (concentration unit not printed) | Emax (fold-induction), luciferase activation (Primate GnRH-2 receptor [7]): 11.8 fold-induction | Ratio^a (EC50 relative to the EC50 of GnRH-2), luciferase activation (Primate GnRH-2 receptor [7]): 0.38 ratio to GnRH-2 | inositol phosphate production, concentration needed compared with GnRH-2 (bfGnRHR-1 [12]): ~8 fold lower concentration than GnRH-2 | inositol phosphate production, sensitivity compared with GnRH-1 (rat GnRHR [8]): 10 fold lower sensitivity than GnRH-1

B9: [Leu^5, D-Ala^6]GnRH-2 (peptide)
peptide: [pGlu]HWSL[dA]WYPG-NH2
SMILES: CC(C)C[C@H](NC(=O)[C@H](CO)NC(=O)[C@H](Cc1c[nH]c2ccccc12)NC(=O)[C@H](Cc1c[nH]cn1)NC(=O)[C@@H]1CCC(=O)N1)C(=O)N[C@H](C)C(=O)N[C@@H](Cc1c[nH]c2ccccc12)C(=O)N[C@@H](Cc1ccc(O)cc1)C(=O)N1CCC[C@H]1C(=O)NCC(N)=O
Emax (fold-induction), luciferase activation (Primate GnRH-2 receptor [7]): 6.22 fold-induction | Ratio^a (EC50 relative to the EC50 of GnRH-2), luciferase activation (Primate GnRH-2 receptor [7]): 11 ratio to GnRH-2

B10: [D-Lys^6]GnRH-2 (peptide)
peptide: [pGlu]HWSH[dK]WYPG-NH2
SMILES: NCCCC[C@@H](NC(=O)[C@H](Cc1c[nH]cn1)NC(=O)[C@H](CO)NC(=O)[C@H](Cc1c[nH]c2ccccc12)NC(=O)[C@H](Cc1c[nH]cn1)NC(=O)[C@@H]1CCC(=O)N1)C(=O)N[C@@H](Cc1c[nH]c2ccccc12)C(=O)N[C@@H](Cc1ccc(O)cc1)C(=O)N1CCC[C@H]1C(=O)NCC(N)=O
Emax (fold-induction), luciferase activation (Primate GnRH-2 receptor [7]): 11.7 fold-induction | Ratio^a (EC50 relative to the EC50 of GnRH-2), luciferase activation (Primate GnRH-2 receptor [7]): 0.66 ratio to GnRH-2
